Experimental findings from patent US20200148755A1 are described below.

Numbering of substitutions follows the chain as printed.

B1: 5E5WT scFv-Fc antibody (scFv, part only; not given: Linker, domain order, Fc, V domains shown, not shown: another chain or arm of the molecule; a dimerising Fc or GST; small tags and cut ends)
VH: QLQLVESGGGLVQPGGSLRLSCAASGFTFGTYSMRWVRQVPRKALEWVSSISTDGGGTAYRDSVKGRFTISRDNAKNTLYLQMNNLKPEDTAIYYCVIAGYSDWGQGTQVTVSS
VL: ATMLTQSPGSLSVVPGESASISCKTSQGLVHSDGKTYFYWFLQKPGQSPQQLIYQVSNRASGVPDRFTGSGSGTDFTLKISGVKAEDAGVYYCAQGTYYPHTFGSGTRLEIK
B2: 5E5VHWT_VL8 scFv-Fc antibody (scFv, part only; not given: Linker, domain order, Fc, V domains shown, not shown: another chain or arm of the molecule; a dimerising Fc or GST; small tags and cut ends)
VH: B1 VH
VL: B1 VL with Q95H
B3: 5E5VH12_VLWT scFv-Fc antibody (scFv, part only; not given: Linker, domain order, Fc, V domains shown, not shown: another chain or arm of the molecule; a dimerising Fc or GST; small tags and cut ends)
VH: B1 VH with A99H
VL: B1 VL
B4: 5E5VH5_VLWT scFv-Fc antibody (scFv, part only; not given: Linker, domain order, Fc, V domains shown, not shown: another chain or arm of the molecule; a dimerising Fc or GST; small tags and cut ends)
VH: B1 VH with S52H
VL: B1 VL

In the first assay the target is biotinylated human ApoC3 (human) (UniProt P02656). Description: SPR, biotinylated human ApoC3 on streptavidin chip, scFv-Fc injected, pH 5.5. (In general: Surface plasmon resonance follows binding to a sensor surface in real time, without labels.)
Chain of UniProt P02656 (P02656 21-99): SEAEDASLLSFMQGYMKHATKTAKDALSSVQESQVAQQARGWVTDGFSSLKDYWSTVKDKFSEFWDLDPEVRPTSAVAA
In general, Kd refers to the constant that tells how readily two partners part at equilibrium. Read a high Kd as lower affinity. A word on the koff: it is a measure of how fast the partners let go of each other. High values mean fast dissociation, low ones slow dissociation. The kon is the rate constant with which the complex forms. Read a high kon as fast association. The molecule B1 came in with a Kd of 0.06 nM, a dissociation rate constant (koff) of 2.53e-05 s⁻¹ and a kon of 393000 M⁻¹ s⁻¹.
B2 had a Kd of 4.29 nM, a koff of 0.00116 s⁻¹ and a kon of 269000 M⁻¹ s⁻¹.
The corresponding values for B3 are 16 nM, 0.00206 s⁻¹ and 129000 M⁻¹ s⁻¹.
On the same counts, the results for B4 are 10.9 nM, 0.0016 s⁻¹ and 147000 M⁻¹ s⁻¹.

The next assay shares this target. The experiment in a line: SPR, biotinylated human ApoC3 on streptavidin chip, scFv-Fc injected, pH 7.4.
The molecule B1 had a Kd of 0.02 nM, a koff of 1.75e-05 s⁻¹ and a kon of 823000 M⁻¹ s⁻¹.
The corresponding values for B2 are 0.58 nM, 0.000221 s⁻¹ and 381000 M⁻¹ s⁻¹.
On the same counts, the results for B3 are 0.51 nM, 0.000157 s⁻¹ and 308000 M⁻¹ s⁻¹.
The corresponding values for B4 are 0.59 nM, 0.000105 s⁻¹ and 178000 M⁻¹ s⁻¹.

The target is the same in a further assay. The experiment in a line: SPR, biotinylated human ApoC3 on streptavidin chip, scFv-Fc injected; ratio of KD at pH 5.5 to KD at pH 7.4.
On to B1, for which the KD pH 5.5/KD pH 7.4 was 3.
Take B2: the KD pH 5.5/KD pH 7.4 came to 7.4.
Still for that read-out and setting: the result for B3 reads 31.4; that for B4, 18.5.
